Among the data in article PMC10410066 are response (Fluorescence Ratio (665/615)) values, retold here.

In this assay the target is inhibitor of nuclear factor kappa B kinase subunit beta (IKBKB), FLAG-tagged (UniProt O14920). Briefly: TR-FRET protein-protein interaction assay (2B7-Tb/anti-FLAG-D2). The note with it: peak of the lysate titration curve (mutant peak at about 3 ug/well, WT peak at about 5 ug/well); HEK293T lysates; parent: est. 0.30; read off a plot.

Take “N571 Q55 HTT (N-terminal huntingtin fragment 1-571 with 55 glutamines) S13A; S16A”: the response (Fluorescence Ratio (665/615)) was 0.26.
